From patent US20230226223A1 (SOLA BIOSCIENCES, published 2023)

B1: Construct 54, QBP1-JB1-QBP1 (1) (designed binder)
chain: MSNWKWWPGIFDGKDYYQTLGLARGASDEEIKRAYRRQALRYHPDKNKEPGAEEKFKEIAEAYDVLSDPRKREIFDRYGEEGLKGSSNWKWWPGIFDGDYKDDDDK
B2: Construct 35, JB1-QBP1-QBP1 (2) (designed binder)
chain: MGKDYYQTLGLARGASDEEIKRAYRRQALRYHPDKNKEPGAEEKFKEIAEAYDVLSDPRKREIFDRYGEEGLKGSSNWKWWPGIFDEAAAKSNWKWWPGIFDLE
B3: Construct 36, JB1-QBP1-QBP1 (3) (designed binder)
chain: MGKDYYQTLGLARGASDEEIKRAYRRQALRYHPDKNKEPGAEEKFKEIAEAYDVLSDPRKREIFDRYGEEGLKGSSNWKWWPGIFDGGGGSSNWKWWPGIFDLE
B4: Construct 45, JB1-QBP1-QBP1 (12) (designed binder)
chain: MGKDYYQTLGLARGASDEEIKRAYRRQALRYHPDKNKEPGAEEKFKEIAEAYDVLSDPRKREIFDRYGEEGLKGSGGGGSSNWKWWPGIFDGGGGSGGGGSSNWKWWPGIFDLE
B5: Construct 46, JB1-QBP1-QBP1 (13) (designed binder)
chain: MGKDYYQTLGLARGASDEEIKRAYRRQALRYHPDKNKEPGAEEKFKEIAEAYDVLSDPRKREIFDRYGEEGLKGSGGGGSSNWKWWPGIFDEAAAKEAAAKSNWKWWPGIFDLE
B6: Construct 47, JB1-QBP1-QBP1 (14) (designed binder)
chain: MGKDYYQTLGLARGASDEEIKRAYRRQALRYHPDKNKEPGAEEKFKEIAEAYDVLSDPRKREIFDRYGEEGLKGSEAAAKSNWKWWPGIFDGGGGSGGGGSSNWKWWPGIFDLE
B7: Construct 48, JB1-QBP1-QBP1 (15) (designed binder)
chain: MGKDYYQTLGLARGASDEEIKRAYRRQALRYHPDKNKEPGAEEKFKEIAEAYDVLSDPRKREIFDRYGEEGLKGSEAAAKSNWKWWPGIFDEAAAKEAAAKSNWKWWPGIFDLE
B8: Construct 37, JB1-QBP1-QBP1 (4) (designed binder)
chain: MGKDYYQTLGLARGASDEEIKRAYRRQALRYHPDKNKEPGAEEKFKEIAEAYDVLSDPRKREIFDRYGEEGLKGSGGGGSSNWKWWPGIFDEAAAKSNWKWWPGIFDLE
B9: Construct 38, JB1-QBP1-QBP1 (5) (designed binder)
chain: MGKDYYQTLGLARGASDEEIKRAYRRQALRYHPDKNKEPGAEEKFKEIAEAYDVLSDPRKREIFDRYGEEGLKGSGGGGSSNWKWWPGIFDGGGGSSNWKWWPGIFDLE
B10: Construct 40, JB1-QBP1-QBP1 (7) (designed binder)
chain: MGKDYYQTLGLARGASDEEIKRAYRRQALRYHPDKNKEPGAEEKFKEIAEAYDVLSDPRKREIFDRYGEEGLKGSEAAAKSNWKWWPGIFDGGGGSSNWKWWPGIFDLE
B11: Construct 39, JB1-QBP1-QBP1 (6) (designed binder)
chain: MGKDYYQTLGLARGASDEEIKRAYRRQALRYHPDKNKEPGAEEKFKEIAEAYDVLSDPRKREIFDRYGEEGLKGSEAAAKSNWKWWPGIFDEAAAKSNWKWWPGIFDLE
B12: Construct 41, JB1-QBP1-QBP1 (8) (designed binder)
chain: MGKDYYQTLGLARGASDEEIKRAYRRQALRYHPDKNKEPGAEEKFKEIAEAYDVLSDPRKREIFDRYGEEGLKGSEAAAKSNWKWWPGIFDEAAAKSNWKWWPGIFD
B13: Construct 42, JB1-QBP1-QBP1 (9) (designed binder)
chain: MGKDYYQTLGLARGASDEEIKRAYRRQALRYHPDKNKEPGAEEKFKEIAEAYDVLSDPRKREIFDRYGEEGLKGSEAAAKSNWKWWPGIFDGGGGSSNWKWWPGIFD
B14: Construct 51, JB1-QBP1-QBP1 (18) (designed binder)
chain: MGKDYYQTLGLARGASDEEIKRAYRRQALRYHPDKNKEPGAEEKFKEIAEAYDVLSDPRKREIFDRYGEEGLKGSEAAAKSNWKWWPGIFDLEGGGGSSNWKWWPGIFDLE
B15: Construct 52, JB1-QBP1-QBP1 (19) (designed binder)
chain: MGKDYYQTLGLARGASDEEIKRAYRRQALRYHPDKNKEPGAEEKFKEIAEAYDVLSDPRKREIFDRYGEEGLKGSGGGGSSNWKWWPGIFDLEGGGGSSNWKWWPGIFDLE
B16: Construct 57, JB1-QBP1-JB1-QBP1 (designed binder)
chain: MGKDYYQTLGLARGASDEEIKRAYRRQALRYHPDKNKEPGAEEKFKEIAEAYDVLSDPRKREIFDRYGEEGLKGSGSSNWKWWPGIFDEFMGKDYYQTLGLARGASDEEIKRAYRRQALRYHPDKNKEPGAEEKFKEIAEAYDVLSDPRKREIFDRYGEEGLKGSGGGGSGGGGSGGGGSGGGGSAAASNWKWWPGIFDLESRGDYKDDDDK
B17: Construct 55, QBP1-JB1-QBP1 (2) (designed binder)
chain: MSNWKWWPGIFDLEGKDYYQTLGLARGASDEEIKRAYRRQALRYHPDKNKEPGAEEKFKEIAEAYDVLSDPRKREIFDRYGEEGLKGSGGGSSNWKWWPGIFDLE
B18: Construct 56, JB1-JB1-QBP1 (designed binder)
chain: MGKDYYQTLGLARGASDEEIKRAYRRQALRYHPDKNKEPGAEEKFKEIAEAYDVLSDPRKREIFDRYGEEGLKGSGSEFMGKDYYQTLGLARGASDEEIKRAYRRQALRYHPDKNKEPGAEEKFKEIAEAYDVLSDPRKREIFDRYGEEGLKGSGGGGSGGGGSGGGGSGGGGSAAASNWKWWPGIFDLESRGDYKDDDDK
B19: Construct 53, Flag-QBP1-JB1-QBP1-Flag (designed binder)
chain: MDYKDDDDKGGTGSSNWKWWPGIFDEFMGKDYYQTLGLARGASDEEIKRAYRRQALRYHPDKNKEPGAEEKFKEIAEAYDVLSDPRKREIFDRYGEEGLKGSGGGGSGGGGSGGGGSGGGGSAAASNWKWWPGIFDLESRGDYKDDDDK
B20: Construct 49, JB1-QBP1-QBP1 (16) (designed binder)
chain: MGKDYYQTLGLARGASDEEIKRAYRRQALRYHPDKNKEPGAEEKFKEIAEAYDVLSDPRKREIFDRYGEEGLKGSGGGGSGGGGSGGGGSGGGGSAAASNWKWWPGIFDLEGGGGSSRAAASNWKWWPGIFDLE
B21: Construct 50, JB1-QBP1-QBP1 (17) (designed binder)
chain: MGKDYYQTLGLARGASDEEIKRAYRRQALRYHPDKNKEPGAEEKFKEIAEAYDVLSDPRKREIFDRYGEEGLKGSGGGGSGGGGSGGGGSGGGGSAAASNWKWWPGIFDLEEAAAKSRAAASNWKWWPGIFDLE
B22: Construct 43, JB1-QBP1-QBP1 (10) (designed binder)
chain: MGKDYYQTLGLARGASDEEIKRAYRRQALRYHPDKNKEPGAEEKFKEIAEAYDVLSDPRKREIFDRYGEEGLKGSSNWKWWPGIFDGGGGSGGGGSSNWKWWPGIFDLE
B23: Construct 44, JB1-QBP1-QBP1 (11) (designed binder)
chain: MGKDYYQTLGLARGASDEEIKRAYRRQALRYHPDKNKEPGAEEKFKEIAEAYDVLSDPRKREIFDRYGEEGLKGSSNWKWWPGIFDEAAAKEAAAKSNWKWWPGIFDLE

Biological target: GFP-HTTQ74 reporter construct
Experiment: cell-based or functional assay

Binder | Reduction of Aggregation (%), filter trap assay
B1 | 0%
B2 | 97.9%
B3 | 95.7%
B4 | 91.1%
B5 | 100%
B6 | 99.7%
B7 | 100%
B8 | 97%
B9 | 96.9%
B10 | 96%
B11 | 98.1%
B12 | 91.1%
B13 | 87%
B14 | 96.5%
B15 | 96.9%
B16 | 94.1%
B17 | 9.45%
B18 | 68.5%
B19 | 79.9%
B20 | 82.5%
B21 | 90.9%
B22 | 99.5%
B23 | 99.6%
